To fix the notation:
B1: Drosophila melanogaster Mon1 (natural protein)
chain: MEVEQTSVRSDTNSTCEYLDAEGDPESPNLYQEADPDQEAEQQNHSIISELRDGLGTMRDNSALSPEPGQENKGLAASVESLALSTSTSAKTEDSIGGGLEEEYDYQHDSLWQGQKKHIFILSEAGKPIFSLHGNEDKLATLFGVIQALVSFVQMGQDAITSIHAGGIKFAFMQRSSLILVAASRSNMSVQQLQLQLGDVYNQILSILTYSHMTKIFERRKNFDLRRLLSGSERLFYNLLANDSSSAKVSNNIFTFLTNSIRVFPLPTTIRSQITSAIQSNCSKIKNLVFAVLIANNKLIALVRMKKYSIHPADLRLIFNLVECSESFKSSENWSPICLPKFDMNGYLHAHVSYLADDCQACLLLLSVDRDAFFTLAEAKAKITEKLRKSHCLEAINEELQQPFNAKLYQQVVGIPELRHFLYKPKSTAQLLCPMLRHPYKSLTELERLEAIYCDLLHRIHNSSRPLKLIYEMKEREVVLAWATGTYELYAIFEPVVDKATVIKYVDKLIKWIEKEYDVYFIRNHATF

Assay [1] has as its target T1, Drosophila melanogaster RMC1 (Drosophila melanogaster, UniProt Q9VRX1 1-642).
T1 sequence: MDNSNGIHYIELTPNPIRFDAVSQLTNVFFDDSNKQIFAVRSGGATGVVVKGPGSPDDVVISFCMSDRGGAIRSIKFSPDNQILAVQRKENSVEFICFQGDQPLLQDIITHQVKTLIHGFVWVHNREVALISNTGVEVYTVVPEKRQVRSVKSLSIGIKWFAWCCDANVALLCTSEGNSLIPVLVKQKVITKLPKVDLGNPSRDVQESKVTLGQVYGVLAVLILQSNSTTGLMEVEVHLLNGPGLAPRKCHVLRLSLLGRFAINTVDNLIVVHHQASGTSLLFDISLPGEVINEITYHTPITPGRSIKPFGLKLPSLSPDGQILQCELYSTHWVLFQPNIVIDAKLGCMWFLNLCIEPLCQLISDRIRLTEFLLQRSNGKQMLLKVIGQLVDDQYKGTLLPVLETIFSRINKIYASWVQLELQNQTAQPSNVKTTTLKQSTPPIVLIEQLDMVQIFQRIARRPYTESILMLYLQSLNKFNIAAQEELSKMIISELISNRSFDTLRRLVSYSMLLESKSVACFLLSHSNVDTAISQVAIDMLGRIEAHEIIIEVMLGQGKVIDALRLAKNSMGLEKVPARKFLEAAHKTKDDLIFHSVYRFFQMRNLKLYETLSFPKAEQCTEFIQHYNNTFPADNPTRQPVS
Description: cryo-EM structure.

Assay [2] deals with B1. Description: cryo-EM structure.

Take B1: in assay [1], the binding result is “binds”.

B2: Drosophila melanogaster Ccz1 (natural protein)
chain: MAKLLQRVEITLRSFYIFNSTFGQVEGEEHKKVLFYHPNDIELNTKIKDVGLSEAIIRFTGTFTSEDDCQALHTQKTTQLFYQPEPGYWLVLVLNVPKEVRLKEGVEVADYRGAEISDRIYRAILRQCYQMFRFQNGCFSSCGSEEPNPDKRRELLCQKLLQFYDQHLTNLRDPAQCDIIDMLHSIQYLPLDKTLFLRAQNFGTLCETFPDIKESIMLYQEQVLCGGKLSPEDLHCVHSYVVQHVLKVEASSSTIAVSPSLKRSISECQVGGFVRSRQKVAGDEHDAVNEEDHPMKVYVTLDKEAKPYYLLIYRALHITLCLFLNADQVAPKQDLYDDLHAYMAPQLTSLARDISSELTKEAVGAAGQDNSSGNSETAPKYLFINEQSLQHHTNFQRHLPQGLPRNVLSIIADLANGSGKAEMESAPAEEVQVKTTNDYWIVKRRCNYRQYYVILCNSKATLLDVTQEARRIFEQELTDDVFFDK
For B2, the binding result in assay [1] and in assay [2] was “binds” throughout.
